Experimental findings from article doi:10.1101/2020.10.14.340034 are described below.

The series addresses nsp16 (2'-O-methyltransferase);nsp10 (SARS-CoV-2;SARS-CoV-2, UniProt P0DTD1;P0DTD1 6799-7096;4254-4392, |). The series is described as follows: competition.

Turning to ACCCCC (ssRNA, 5' N7-methylguanosine cap (m7Gppp, cap-0); cap G not in strand) [Biotin-RNA N7-meGpppACCCCC-Biotin], the “apparent K (half saturation)” value was found to be 4.3 µM.
